Our source for the Kd values is patent US20240327535A1 (EISAI R AND D MANAGEMENT, published 2024).

In assay [1] the target is T1, extracellular domain of human BCMA (human, UniProt Q02223 1-54).
T1 construct: amine-linked to Octet AR2G tips; also called hsBCMA; BCMA (human)
T1 sequence: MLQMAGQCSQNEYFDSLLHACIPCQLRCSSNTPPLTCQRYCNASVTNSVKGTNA
As to the kind of experiment: Octet BLI; Fab 200 nM.

Assay [2] concerns the target T2, extracellular domain of rhesus monkey BCMA (rhesus monkey, UniProt F7FFA0 1-53).
T2 construct: extracellular domain; also called RhBCMA
As to the kind of experiment: Octet BLI; Fab 200 nM.

T2 sequence (F7FFA0 entry or part of it): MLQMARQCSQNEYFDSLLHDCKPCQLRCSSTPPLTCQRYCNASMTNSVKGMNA

B1: AB200-(2Vk35)_R2-VH-v52 (Fab, V domains shown)
VH: QVQLVQSGAEVKKPGSSVKVSCKASGGSFSNYWIHWVRQAPGQGLEWMGATYRIQSDTYYAQKFKSRVTITADKSTSTAYMELSSLRSEDTAVYYCARGAIFHGYDVIDNWGQGTLVTVSS
VL: DIQMTQSPSSLSASVGDRVTITCRASQSISSYINWYQQKPGKAPKLLIYATSNLQSGVPSRFSGSGSGTDFTLTISSLQPEDFATYYCQQYRRIPWTFGQGTKLEIKR
As to B1, the Kd is 0.00624 µM in assay [1] and 0.0257 µM in assay [2].

B2: AB200-(2Vk35)_R2-VH-v76 (Fab, V domains shown)
VH: QVQLVQSGAEVKKPGSSVKVSCKASGGTFSNYWIHWVRQAPGQGLEWMGATYRIQSDTYYNEKFKSRVTITADKSTSTAYMELSSLRSEDTAVYYCARGAIYHGFDVIDNWGQGTLVTVSS
VL: DIQMTQSPSSLSASVGDRVTITCRASQSISSYINWYQQKPGKAPKLLIYATSNLQSGVPSRFSGSGSGTDFTLTISSLQPEDFATYYCQQYRRIPWTFGQGTKLEIKR
For the molecule B2, the Kd in assay [1] stood at 0.00193 µM; in assay [2], 0.00846 µM.

B3: AB200-(2Vk35)_R2-VH-v55 (Fab, V domains shown)
VH: QVQLVQSGAEVKKPGSSVKVSCKASGGSFSNYWIHWVRQAPGQGLEWMGATYRIHSTTYYNQKYKSRVTITADKSTSTAYMELSSLRSEDTAVYYCARGAVYHGYDVIDNWGQGTLVTVSS
VL: DIQMTQSPSSLSASVGDRVTITCRASQSISSYINWYQQKPGKAPKLLIYATSNLQSGVPSRFSGSGSGTDFTLTISSLQPEDFATYYCQQYRRIPWTFGQGTKLEIKR
Consider B3, for which the Kd is 0.0197 µM in assay [1] and 0.0431 µM in assay [2].

B4: AB200-(2Vk35)_R2-VH-v69 (Fab, V domains shown)
VH: QVQLVQSGAEVKKPGSSVKVSCKASGGTFSNYWIHWVRQAPGQGLEWMGATYRIQSDTNYNQKFKSRVTITADKSTSTAYMELSSLRSEDTAVYYCARGAVYHGYDVIDNWGQGTLVTVSS
VL: DIQMTQSPSSLSASVGDRVTITCRASQSISSYINWYQQKPGKAPKLLIYATSNLQSGVPSRFSGSGSGTDFTLTISSLQPEDFATYYCQQYRRIPWTFGQGTKLEIKR
As for B4, the Kd in assay [1] is 0.0162 µM; in assay [2], 0.0466 µM.

B5: AB200-(2Vk35)_R2-VH-v56 (Fab, V domains shown)
VH: QVQLVQSGAEVKKPGSSVKVSCKASGGSFSNYWIHWVRQAPGQGLEWMGATYRIHSDTYYAQKYKSRVTITADKSTSTAYMELSSLRSEDTAVYYCARGAIFHGYDVIDNWGQGTLVTVSS
VL: DIQMTQSPSSLSASVGDRVTITCRASQSISSYINWYQQKPGKAPKLLIYATSNLQSGVPSRFSGSGSGTDFTLTISSLQPEDFATYYCQQYRRIPWTFGQGTKLEIKR
As for B5, the Kd in assay [1] worked out at 0.0114 µM; in assay [2], 0.0447 µM.

B6: AB200-(2Vk35)_R2-VH-v62 (Fab, V domains shown)
VH: QVQLVQSGAEVKKPGSSVKVSCKASGGTFSNYWIHWVRQAPGQGLEWMGGTYRIHSDTYYNEKFKSRVTITADKSTSTAYMELSSLRSEDTAVYYCARGAIYHGYDVIENWGQGTLVTVSS
VL: DIQMTQSPSSLSASVGDRVTITCRASQSISSYINWYQQKPGKAPKLLIYATSNLQSGVPSRFSGSGSGTDFTLTISSLQPEDFATYYCQQYRRIPWTFGQGTKLEIKR
For B6, the Kd in assay [1] was 0.0145 µM; in assay [2] it was 0.049 µM.

B7: AB200-(2Vk35)_R2-VH-v63 (Fab, V domains shown)
VH: QVQLVQSGAEVKKPGSSVKVSCKASGGTFSNYWIHWVRQAPGQGLEWMGATYRIHSTTNYNQKFKSRVTITADESTSTAYMELSSLRSEDTAVYYCARGAVYHGYDVIDNWGQGTLVTVSS
VL: DIQMTQSPSSLSASVGDRVTITCRASQSISSYINWYQQKPGKAPKLLIYATSNLQSGVPSRFSGSGSGTDFTLTISSLQPEDFATYYCQQYRRIPWTFGQGTKLEIKR
As for B7, the Kd in assay [1] was found to be 0.0271 µM; in assay [2], 0.00956 µM.

The Kd is the free concentration of one partner at which half of the binding sites on the other are occupied at equilibrium, for simple one-to-one binding.
